Source: patent US20210139581A1 (Alector, published 2021)
Like-named read-outs stand apart in the source and are kept apart here.

What was measured:
[1] = molecular target: T1, human CD33 (human, UniProt P20138 18-259, limits assumed); assay: BLI (ForteBio), Fab 100 nM on immobilized CD33
T1 construct: Human CD33 immobilized on the BLI sensor tip or the BIAcore C1 chip; also called Siglec-3
Procedure: (§1) The affinities (KD) of the humanized antibodies for human CD33 were measured for each antibody by BioLayer Interferometry in a ForteBio assay according to standard techniques (Estep et al. (2013) MAbs 5(2): 270-8). […] The assay was carried out at room temperature.

[2] = molecular target: T2, human CD33 on primary human monocyte-derived dendritic cells (human, UniProt P20138 18-364); assay: cell-based or functional assay
[3] = molecular target: T2, human CD33 on primary human …; assay: cell-based or functional assay; remark: listed apart in the source
[4] = molecular target: T1, human CD33; assay: BLI (ForteBio), Fab 100 nM on immobilized CD33; remark: listed apart in the source
Procedure: as §1
The affinities of AB-H64 and its variants (Table 5) for human CD33 were measured by Fortebio assay according to the method described in Example 1 above.

[5] = molecular target: T2, human CD33 on primary human …; assay: cell-based or functional assay; remark: listed apart in the source
[6] = molecular target: T1, human CD33; assay: SPR (BIAcore), Fab over CD33 on C1 chip
Procedure: (§2) The affinity parameters for 10 of the 88 humanized antibodies (AB-H1, AB-H3, AB-H6, AB-H11, AB-H22, AB-H24, AB-H26, AB-H63, AB-H64, and AB-H71) were measured in a separate experiment by a more sensitive technique, surface plasmon resonance (BIAcore), and compared to Chimeric Ab and Chimeric Ab #2. BIAcore measurements were performed as follows: human CD33 was immobilized on the surface of a C1 chip, and Fabs were injected for 300 s to monitor association, followed by a 900 s flow in running buffer to monitor dissociation. The Fabs were measured at 5 concentrations: a high concentration of 27 nM and 3-fold serial dilutions.
In a separate experiment, as determined by the more sensitive BIAcore technique, affinity parameters of affinity matured antibodies derived from the humanized antibody AB-H64 were measured and were directly compared to that of the Chimeric Ab, according to the method described in Example 1 above.

[7] = molecular target: T2, human CD33 on primary human …; assay: cell-based or functional assay; remark: listed apart in the source
[8] = molecular target: T1, human CD33; assay: SPR (BIAcore), Fab over CD33 on C1 chip; remark: listed apart in the source
Procedure: as §2

[9] = molecular target: T2, human CD33 on primary human …; assay: cell-based or functional assay; remark: listed apart in the source
[10] = molecular target: T1, human CD33; assay: BLI (ForteBio), Fab 100 nM on immobilized CD33; remark: listed apart in the source
Procedure: as §1
The affinities of AB-H14 and its affinity-matured variants (Table 15) and AB-H63 and its affinity-matured variants (Table 16), for human CD33 were measured by Fortebio assay according to the method described in Example 1 above.

T1 sequence (P20138 18-259 limits assumed): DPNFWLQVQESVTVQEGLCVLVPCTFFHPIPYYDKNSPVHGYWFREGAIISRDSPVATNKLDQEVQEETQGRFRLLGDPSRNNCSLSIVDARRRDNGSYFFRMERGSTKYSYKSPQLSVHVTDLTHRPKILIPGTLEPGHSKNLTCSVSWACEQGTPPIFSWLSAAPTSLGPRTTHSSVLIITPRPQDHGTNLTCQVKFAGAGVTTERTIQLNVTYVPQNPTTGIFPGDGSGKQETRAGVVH
T2 sequence (P20138 18-364): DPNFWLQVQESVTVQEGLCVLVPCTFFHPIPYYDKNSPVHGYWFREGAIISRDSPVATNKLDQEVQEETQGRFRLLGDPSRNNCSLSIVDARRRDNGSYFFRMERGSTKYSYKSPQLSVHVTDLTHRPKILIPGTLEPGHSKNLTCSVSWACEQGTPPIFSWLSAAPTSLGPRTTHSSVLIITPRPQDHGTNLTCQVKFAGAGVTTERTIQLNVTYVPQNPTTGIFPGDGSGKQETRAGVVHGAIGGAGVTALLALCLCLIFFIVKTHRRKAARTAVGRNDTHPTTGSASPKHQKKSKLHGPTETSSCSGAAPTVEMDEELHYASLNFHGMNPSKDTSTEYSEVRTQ

Binder	Kd [1]	Receptor downregulation (EC50) [2]	Fold affinity improvement over parental Ab (AB-H64) [4]	Kd [4]	Receptor downregulation (EC50) [5]	Fold Change to AB-H64 [6]	Fold Change to Chimeric Ab [6]	Kd [6]	koff [6]	kon [6]	further results
AB-H2 (antibody, V domains shown, Humanized variant of murine 2F5.1) VH: QVQLVQSGAEVKKPGASVKVSCKASGYTFTDYNLHWVRQAPGQGLEWIGFIYPSNGITGYAQKFQGRVTMTVDTSTSTVYMELSSLRSEDTAVYYCARSTVDYFDYWGQGTLVTVSS VL: DIQMTQSPSSLSASVGDRVTITCRASQSVSTSTYSYMHWYQQKPGKAPKLLIYYASNLESGVPSRFSGSGSGTDFTLTISSLQPEDFATYYCQHSWEIPLTFGQGTKLEIK	3.24 nM	0.0517 nM	–	–	–	–	–	–	–	–	–
AB-64.7 (antibody, V domains shown) VH: QVQLVQSGAEVKKPGASVKISCKASGYTFTDYNYHWVRQAPGQGLEWIGFIYPSNGITGYAQKFQGRATLTVDNSTSTAYMELSSLRSEDTAVYYCARSDVDYFDYWGQGTLLTVSS VL: DIVLTQSPDSLAVSLGERATINCRASQSVGTSTYSYMHWYQQKPGQPPKLLIKYASNLNSGVPDRFSGSGSGTDFTLTISSLQAEDVAVYYCQHSEEIPLTFGQGTKLEIK	–	–	11.9 fold	0.24 nM	0.0306 nM	216 fold	163 fold	0.00997 nM	8.75e-05 s⁻¹	8.78e+06 M⁻¹ s⁻¹	Maximal Downregulation (% CD33 remaining) [3]: 31.2%; Receptor downregulation (EC50) [3]: 0.017 nM
AB-64.8 (antibody, V domains shown) VH: QVQLVQSGAEVKKPGASVKISCKASGYTFTDYNYHWVRQAPGQGLEWIGFIYPSNGITGYAQKFQHRATLTVDNSTSTAYMELSSLRSEDTAVYYCARSDVDYFDYWGQGTLLTVSS VL: DIVLTQSPDSLAVSLGERATINCRASQDVSTSTYSYMHWYQQKPGQPPKLLIKYASNLESGVPDRFSGSGSGTDFTLTISSLQAEDVAVYYCQHSWEIPLTFGQGTKLEIK	–	–	10.3 fold	0.277 nM	0.0272 nM	321 fold	242 fold	0.00671 nM	4.8e-05 s⁻¹	7.15e+06 M⁻¹ s⁻¹	–
AB-64.4 (antibody, V domains shown) VH: QVQLVQSGAEVKKPGASVKISCKASGYTFTDYNLHWVRQAPGQGLEWIGFIYPSNGITGYAQKFQGRATLTVDNSTSTAYMELSSLRSEDTAVYYCARSDVDYFDYWGQGTLLTVSS VL: DIVLTQSPDSLAVSLGERATINCRASQDVSTSTYSYMHWYQQKPGQPPKLLIKYASYLESGVPDRFSGSGSGTDFTLTISSLQAEDVAVYYCEHSWEIPLTFGQGTKLEIK	–	–	7.95 fold	0.36 nM	0.0236 nM	586 fold	443 fold	0.00367 nM	1.98e-05 s⁻¹	5.4e+06 M⁻¹ s⁻¹	–
AB-H9 (antibody, V domains shown, Humanized variant of murine 2F5.1) VH: QVQLVQSGAELKKPGASVKVSCKASGYTFTDYNLHWVRQAPGQRLEWIGFIYPSNGITGYSQKFQGKATLTVDTSASTAYMELSSLRSEDTAVYYCARSTVDYFDYWGQGTTVTVSS VL: DIQMTQSPSSLSASVGDRVTITCRASQSVSTSTYSYMHWYQQKPGKAPKLLIYYASNLESGVPSRFSGSGSGTDFTLTISSLQPEDFATYYCQHSWEIPLTFGQGTKLEIK	3.5 nM	0.0234 nM	–	–	–	–	–	–	–	–	–
AB-64.6 (antibody, V domains shown) VH: QVQLVQSGAEVKKPGASVKISCKASGYTFTDYNYHWVRQAPGQGLEWIGFIYPSNGITGYAQKFQGRATLTVDNSTSTAYMELSSLRSEDTAVYYCARSDVDYFDYWGQGTLLTVSS VL: DIVLTQSPDSLAVSLGERATINCRASQDVSTSTYSYMHWYQQKPGQPPKLLIKYASFLESGVPDRFSGSGSGTDFTLTISSLQAEDVAVYYCQHSWEIPLTFGQGTKLEIK	–	–	8.52 fold	0.336 nM	0.034 nM	341 fold	258 fold	0.0063 nM	3.95e-05 s⁻¹	6.26e+06 M⁻¹ s⁻¹	Maximal Downregulation (% CD33 remaining) [3]: 30.6%; Receptor downregulation (EC50) [3]: 0.0113 nM
AB-64.2 (antibody, V domains shown) VH: QVQLVQSGAEVKKPGASVKISCKASGYTFTDYNLHWVRQAPGQGLEWIGFIYPSNGITGYAQKFQGRATLTVDNSTSTAYMELSSLRSEDTAVYYCARSTVDYFDYWGQGTLLTVSS VL: DIVLTQSPDSLAVSLGERATINCRVSQDVSTSTYSYMHWYQQKPGQPPKLLIKYASNLESGVPDRFSGSGSGTDFTLTISSLQAEDVAVYYCQHSWEIPLTFGQGTKLEIK	–	–	3.64 fold	0.786 nM	0.0311 nM	46.9 fold	35.5 fold	0.0458 nM	0.000137 s⁻¹	3e+06 M⁻¹ s⁻¹	Maximal Downregulation (% CD33 remaining) [3]: 26.8%; Receptor downregulation (EC50) [3]: 0.0166 nM
AB-64.5 (antibody, V domains shown) VH: QVQLVQSGAEVKKPGASVKISCKASGYTFTDYNYHWVRQAPGQGLEWIGFIYPSNGITGYAQKFFGRATLTVDNSTSTAYMELSSLRSEDTAVYYCARSDVDYFDYWGQGTLLTVSS VL: DIVLTQSPDSLAVSLGERATINCRASQSVGTSTYSYMHWYQQKPGQPPKLLIKYASNLESGVPDRFSGSGSGTDFTLTISSLQAEDVAVYYCQHSWEIPLTFGQGTKLEIK	–	–	7.76 fold	0.369 nM	0.0263 nM	214 fold	162 fold	0.0101 nM	6.33e-05 s⁻¹	6.3e+06 M⁻¹ s⁻¹	–

Continued, in another order:

Kd [1]	Receptor downregulation (EC50) [2]	Fold affinity improvement over parental Ab (AB-H64) [4]	Kd [4]	Receptor downregulation (EC50) [5]	Fold Change to AB-H64 [6]	Fold Change to Chimeric Ab [6]	Kd [6]	koff [6]	kon [6]	Binder	further results
8.57 nM	0.0481 nM	–	–	–	–	–	–	–	–	AB-H65 (antibody, V domains shown, Humanized variant of murine 2F5.1) VH: QVQLVQSGAEVKKPGASVKVSCKASGYTFTDYNLHWVRQAPGQGLEWMGFIYPSNGITGYAQKFQGRVTMTRDTSTSTVYMELSSLRSEDTAVYYCARSTVDYFDYWGQGTTVTVSS VL: DIVLTQSPDSLAVSLGERATINCRASQSVSTSTYSYMHWYQQKPGQPPKLLIKYASNLESGVPDRFSGSGSGTDFTLTISSLQAEDVAVYYCQHSWEIPLTFGQGTKLEIK	–
5.54 nM	0.0393 nM	–	–	–	–	–	–	–	–	AB-H66 (antibody, V domains shown, Humanized variant of murine 2F5.1) VH: QVQLVQSGAEVKKPGASVKISCKASGYTFTDYNLHWVRQAPGQGLEWIGFIYPSNGITGYAQKFQGRATLTVDTSTSTAYMELSSLRSEDTAVYYCARSTVDYFDYWGQGTTVTVSS VL: DIVLTQSPDSLAVSLGERATINCRASQSVSTSTYSYMHWYQQKPGQPPKLLIKYASNLESGVPDRFSGSGSGTDFTLTISSLQAEDVAVYYCQHSWEIPLTFGQGTKLEIK	–
4.07 nM	0.0041 nM	–	–	–	–	–	–	–	–	AB-H63 (antibody, V domains shown, Humanized variant of murine 2F5.1) VH: QVQLVQSGAEVKKPGASVKVSCKASGYTFTDYNLHWVRQAPGQGLEWIGFIYPSNGITGYAQKFQGRVTMTVDTSTSTVYMELSSLRSEDTAVYYCARSTVDYFDYWGQGTLVTVSS VL: DIVLTQSPDSLAVSLGERATINCRASQSVSTSTYSYMHWYQQKPGQPPKLLIKYASNLESGVPDRFSGSGSGTDFTLTISSLQAEDVAVYYCQHSWEIPLTFGQGTKLEIK	Maximal Downregulation (% CD33 remaining) [7]: 20.3%; Receptor downregulation (EC50) [7]: 0.032 nM; Fold Change to Chimeric Ab [8]: 0.46 fold; Kd [8]: 3.53 nM; koff [8]: 0.00263 s⁻¹; kon [8]: 744000 M⁻¹ s⁻¹; Maximal Downregulation (% CD33 remaining) [9]: 16.1%; Receptor downregulation (EC50) [9]: 0.0726 nM; Kd [10]: 2.72 nM; koff [10]: 0.00168 s⁻¹; kon [10]: 615000 M⁻¹ s⁻¹
5.45 nM	0.0586 nM	–	–	–	–	–	–	–	–	AB-H15 (antibody, V domains shown, Humanized variant of murine 2F5.1) VH: QVQLVQSGAEVKKPGASVKISCKASGYTFTDYNLHWVRQAPGQGLEWIGFIYPSNGITGYAQKFQGRATLTVDTSTSTAYMELSSLRSEDTAVYYCARSTVDYFDYWGQGTLLTVSS VL: DIQMTQSPSSLSASVGDRVTITCRASQSVSTSTYSYMHWYQQKPGKAPKLLIKYASNLESGVPSRFSGSGSGTDFTLTISSLQPEDFATYYCQHSWEIPLTFGQGTKLEIK	–
